This data set concerns the molecule itself. Put plainly: crystal structure; GOT1 (16 mg/mL) mixed with 40 uM AH, sitting-drop vapor diffusion, 18 °C, 0.1 M HEPES pH 7.5, 12% w/v PEG 3350; 2.6 Å; two subunits (chains A and B) form the dimer.

One protein from publication PMC8618880, “Discovery of GOT1 Inhibitors from a Marine-Derived Aspergillus terreus That Act against Pancreatic Ductal Adenocarcinoma” (Marine Drugs, 2021) can be followed below.

B1: glutamic oxaloacetate transaminase 1 (GOT1) (enzyme, human)
chain: PPSVFAEVPQAQPVLVFKLTADFREDPDPRKVNLGVGAYRTDDCHPWVLPVVKKVEQKIANDNSLNHEYLPILGLAEFRSCASRLALGDDSPALKEKRVGGVQSLGGTGALRIGADFLARWYNGTNNKNTPVYVSSPTWENHNAVFSAAGFKDIRSYRYWDAEKRGLDLQGFLNDLENAPEFSIVVLHACAHNPTGIDPTPEQWKQIASVMKHRFLFPFFDSAYQGFASGNLERDAWAIRYFVSEGFEFFCAQSFSKNFGLYNERVGNLTVVGKEPESILQVLSQMEKIVRITWSNPPAQGARIVASTLSNPELFEEWTGNVKTMADRILTMRSELRARLEALKTPGTWNHITDQIGMFSFTGLNPKQVEYLVNEKHIYLLPSGRINVSGLTTKNLDYVATSIHEAVTKIQ
modifications: in the crystal: C17 atom of AH covalently linked to the N atom of Lys259 in chain A; PLP in chain B
notes: GOT1, expression construct pET26b-got1; Domains described in the structure span residues 17-411; also called WT-GOT1; glutamic-oxaloacetic transaminase 1; source: E. coli BL21 (DE3), purified (HisTrap FF, Resource Q, Superdex200 Increase)
For the protein B1, the binding result was “binds”.
